Experimental data from US20260103541A1 (UNIVERSIT T Z RICH, published 2026).

How the values were obtained:
[1] = target: T1, mouse FAP on cells (mouse, UniProt P97321 1-761); assay: cell-based binding assay
T1 construct: also called murine FAP; mFAP
T1 sequence: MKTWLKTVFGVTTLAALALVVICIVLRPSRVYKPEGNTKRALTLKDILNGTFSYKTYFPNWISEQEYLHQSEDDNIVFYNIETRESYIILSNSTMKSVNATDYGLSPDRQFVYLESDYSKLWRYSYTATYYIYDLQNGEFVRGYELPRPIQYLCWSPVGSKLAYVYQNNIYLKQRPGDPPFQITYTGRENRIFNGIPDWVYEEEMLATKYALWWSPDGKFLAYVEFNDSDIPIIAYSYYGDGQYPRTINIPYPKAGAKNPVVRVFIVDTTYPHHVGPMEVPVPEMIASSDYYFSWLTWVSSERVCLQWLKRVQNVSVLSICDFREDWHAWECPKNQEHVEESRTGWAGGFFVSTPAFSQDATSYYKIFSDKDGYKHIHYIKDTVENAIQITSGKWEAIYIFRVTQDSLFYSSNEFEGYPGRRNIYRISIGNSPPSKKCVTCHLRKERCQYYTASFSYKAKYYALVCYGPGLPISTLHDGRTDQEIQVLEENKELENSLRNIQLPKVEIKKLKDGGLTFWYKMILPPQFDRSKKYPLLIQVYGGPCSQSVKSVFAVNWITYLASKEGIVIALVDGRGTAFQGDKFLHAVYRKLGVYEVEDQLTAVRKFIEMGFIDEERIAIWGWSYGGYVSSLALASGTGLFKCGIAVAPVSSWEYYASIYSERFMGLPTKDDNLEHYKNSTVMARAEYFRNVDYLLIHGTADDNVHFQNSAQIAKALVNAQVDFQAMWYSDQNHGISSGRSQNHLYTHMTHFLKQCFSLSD

[2] = target: T2, recombinant mouse FAP (R&D Systems) (mouse, UniProt P97321 26-761); assay: ELISA, recombinant mouse FAP coated, 100 nM DARPin, anti-FLAG detection
T2 construct: also called Recombinant mFAP
T2 sequence: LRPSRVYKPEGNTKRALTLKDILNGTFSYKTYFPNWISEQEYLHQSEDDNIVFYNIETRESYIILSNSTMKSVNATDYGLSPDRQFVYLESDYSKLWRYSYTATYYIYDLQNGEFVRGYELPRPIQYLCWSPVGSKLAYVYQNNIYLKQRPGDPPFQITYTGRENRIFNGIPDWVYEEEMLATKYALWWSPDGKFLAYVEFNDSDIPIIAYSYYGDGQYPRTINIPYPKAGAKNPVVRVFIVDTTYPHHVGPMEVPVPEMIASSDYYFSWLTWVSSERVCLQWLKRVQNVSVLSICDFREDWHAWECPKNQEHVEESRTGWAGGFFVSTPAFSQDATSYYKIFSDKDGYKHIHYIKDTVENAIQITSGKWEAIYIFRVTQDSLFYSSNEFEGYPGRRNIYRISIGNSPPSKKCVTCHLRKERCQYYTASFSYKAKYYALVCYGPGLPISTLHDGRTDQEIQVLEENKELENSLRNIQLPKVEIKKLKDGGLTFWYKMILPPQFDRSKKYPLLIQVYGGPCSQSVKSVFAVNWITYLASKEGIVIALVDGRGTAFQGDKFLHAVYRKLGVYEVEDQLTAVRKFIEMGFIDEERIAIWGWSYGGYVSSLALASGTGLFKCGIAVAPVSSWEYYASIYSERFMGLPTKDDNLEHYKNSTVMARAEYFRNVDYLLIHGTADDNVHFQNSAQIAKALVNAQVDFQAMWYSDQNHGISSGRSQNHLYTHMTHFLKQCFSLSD
Protocol: Recombinant mFAP (R&D Systems), and recombinant maltose-binding protein (MBP; inhouse production) for a positive control, were used for a DARPin binding analysis via ELISA. Target protein was coated overnight (O/N) at 4° C. on MaxiSorp™ 96-well plates (Nunc). Blocking was performed for 2 h at RT using ELISA-blocking buffer (PBS containing 0.5% (w/v) BSA). Plates were washed with ELISA-PBS-T (PBS containing 0.05% (v/v) Tween 20). Samples were diluted (100 nM DARPin concentration) in ELISA-PBS-TB (ELISA PBS T containing 0.5% (w/v) BSA) and incubated for 1 h at 4° C. while shaking. DARPin detection was performed with rabbit anti-FLAG antibody (GenScript, A01868; 1:5,000) and goat anti-rabbit-AP antibody (Sigma Aldrich, A3687; 1:10,000), both diluted in ELISA-PBS-TB and incubated for 1 h at 4° C. while shaking. Substrate solution consisting of 3 mM p-nitrophenyl phosphate (pNPP) diluted in pNPP buffer (50 mM NaHCO₃, 50 mM MgCl₂) was used for final detection. A Tecan Infinite M1000 plate reader (Tecan) was used to measure the absorbance at 405 nm.

[3] = target: T3, human FAP (fibroblast activation protein) on HT1080hFAP cells (human, UniProt Q12884 1-760); assay: flow cytometry cell-based binding assay, HT1080hFAP against FAP-negative HT1080 cells
T3 construct: also called seprase
T3 sequence: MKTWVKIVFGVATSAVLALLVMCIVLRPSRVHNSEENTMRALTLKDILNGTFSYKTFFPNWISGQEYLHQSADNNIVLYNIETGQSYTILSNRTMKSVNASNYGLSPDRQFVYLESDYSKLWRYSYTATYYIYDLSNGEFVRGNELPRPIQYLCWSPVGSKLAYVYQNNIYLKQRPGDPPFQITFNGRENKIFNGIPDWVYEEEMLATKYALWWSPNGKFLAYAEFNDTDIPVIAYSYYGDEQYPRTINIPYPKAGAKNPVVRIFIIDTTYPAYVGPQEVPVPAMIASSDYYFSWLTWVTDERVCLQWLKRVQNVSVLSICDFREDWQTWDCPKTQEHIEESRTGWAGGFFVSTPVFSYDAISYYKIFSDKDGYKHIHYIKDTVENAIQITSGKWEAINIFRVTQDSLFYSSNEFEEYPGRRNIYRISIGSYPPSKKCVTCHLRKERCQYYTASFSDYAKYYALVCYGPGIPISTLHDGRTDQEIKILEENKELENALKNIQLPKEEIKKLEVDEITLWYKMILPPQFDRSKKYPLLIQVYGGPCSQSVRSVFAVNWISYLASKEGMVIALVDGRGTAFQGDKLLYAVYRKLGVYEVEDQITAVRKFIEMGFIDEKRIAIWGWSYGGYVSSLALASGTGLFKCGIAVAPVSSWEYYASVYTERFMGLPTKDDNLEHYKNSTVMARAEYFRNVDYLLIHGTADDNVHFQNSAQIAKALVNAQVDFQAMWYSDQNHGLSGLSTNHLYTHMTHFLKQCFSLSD

Measured: binding result

B1: DARPin #6 (designed binder)
chain: DLGKKLLEAARAGQDDEVRILMANGADVNASDNWGRTPLHVAAQRGHLEIVDVLLAHGADDNASNRWGSTPLHVAAYTGHLEIVDVLLANGADVNASTANGETPLHAAAHAGHLEIVDVLLKHGADVNAQDKFGKTPFDLAIDNGNEDIAEVLQ
notes: also called designed ankyrin repeat domain #6; not shown: N terminal His6 tag; C terminal FLAG tag
binds: all assays above
